The values that follow come from patent US20260176659A1, “IMPROVED METHOD FOR THE PRODUCTION OF NATURAL VANILLIN” (BASE SE, priority 2022, published 2026).

Values joined by “and” are separate entries in the source; they are usually repeats but may differ in a detail not shown here. Equal values may be shown once.

Common to all, as to type: biochemical
The nature of data set [1]: Spectrophotometric enzymatic assay: cleaving activity, production of vanillin from coniferyl alcohol at 349 nm. The note with it: for Screening of putative COs: formation of 3a upon 2a cleavage (hit or inactive): spectrophotometric assay. On the procedure: Stock solution 200× of coniferyl alcohol (90 mg) was prepared in ethanol (5 mL) and stored at −20° C. From this, a new stock solution 20× of coniferyl alcohol (10 mM) was freshly prepared by 1:10 dilution in Glycine-NaOH (50 mM, pH 9.0). A cuvette containing 0.750 mL Glycine-NaOH (50 mM, pH 9.0) and 0.05 mL of the substrate 20× stock was pre-warmed at 25° C. for 1.5 mins. Then, the reaction was initiated by the addition of 0.2 mL of the enzyme sample. The cleaving […] activity was measured spectrophotometrically following the production of vanillin at 349 nm (ε349=26.7 mM^−1cm^−1 experimentally determined). One unit of activity (U) is defined as the amount of enzyme required to produce 1 μmol of vanillin per min. Agilent Cary 60 UV-Vis Spectrophotometer was used for all the measurements.
Searching for alternative novel alkene cleavage oxygenases (COs) catalysing the formation of vanillin from coniferyl alcohol was performed. A set of 27 sequences and 10 COs from different branches of the phylogenetic tree were selected, named CO-02-11. Two additional enzymes were included, which are located in different clusters of the phylogenetic tree: Lignostillbene dioxygenase from Pseudomonas brassicaceraum (PbLSD, PDB: 5V2D) and aromatic dioxygenase (Ado, CO-01) from Thermothelomyces thermophilus (GenBank ID: XP_003665585). The proteins were recombinantly expressed in E. coli BL21(DE3), following the same protocol developed for IECO. […] Putative COs were screened by spectrophotometric assay, monitoring the formation of 3a upon 2a cleavage. From a set of twelve COs, four positive hits, namely CO-01, CO-03, CO-06 and CO-07 were found. Positive variants were tested in the one pot cascade and compared them with IECO In agreement with the spectrophotometric screening, all four COs converted eugenol 1a to vanillin 3a (Table 8). The first step of the cascade is efficiently performed by EUGO, and the substrate is completely consumed. […] Overall, 70±3% conversion of 1a to vanillin 3a was achieved.

Data set [2] in a line: Bioconversion of eugenol to vanillin: one-pot concurrent cascade EUGO + alkene cleavage oxygenase (5 mM scale). The note with it: for Reaction composition after 24 hours 1a (%) / Reaction composition after 24 hours 2a (%) / Reaction composition after 24 hours 3a (%) / Reaction composition after 24 hours 5a (%): Table 8a, CO-XX FD-CFE 1 mg/mL; for Reaction composition after 24 hours 1a (%) / Reaction composition after 24 hours 2a (%) / Reaction composition after 24 hours 3a (%) / Reaction composition after 24 hours 5a (%) / Product distribution after 24 hours 2a (%) / Product distribution after 24 hours 3a (%) / Product distribution after 24 hours 5a (%): EUGO FD-CFE 1 mg/mL, catalase 10 mg/mL, eugenol 5 mM; for Product distribution after 24 hours 2a (%) / Product distribution after 24 hours 3a (%) / Product distribution after 24 hours 5a (%): Table 8b, CO-0X FD-CFE 1 mg/mL; for Conversion of 1a to 3a (%) / Reaction composition at 24 hours (%) 1a / Reaction composition at 24 hours (%) 2a / Reaction composition at 24 hours (%) 3a / Reaction composition at 24 hours (%) 5a: replicates of concurrent cascade with EUGO, 5 mM 1a, SD of four experiments; for Conversion of 1a to 3a (%): 24 h. In outline:
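Cell-free extracts of EUGO (0.5 mg) and cleavage oxygenase (3 mg) were combined with catalase, 1 mM FeSO4 and 1 mM ascorbate in glycine-NaOH pH 9.0 (or Tris-HCl pH 8.0). The cascade ran with 5 mM eugenol (5% ethanol/DMSO cosolvent) at 30° C and 120 rpm overnight. Methanol-quenched samples were analysed by HPLC at 280/340 nm.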

The nature of data set [3]: CO-03 activity in presence of eugenol. The protocol:
Stock solutions of coniferyl alcohol (250 mM), eugenol (0-2 M) were prepared in ethanol and stored at −20° C. Unless otherwise specified, the reaction mixtures (0.5 mL) were set up in 1.5 mL glass vials as follows: CO-03 (freeze-dried CFE 5-10 mg/mL) was dissolved in buffer (Glycine-NaOH 50 mM, pH 9.0 or Tris-HCl 50 mM, pH 8.0) with sodium ascorbate (1 mM), FeSO4 (1 mM), bovine liver catalase (Sigma C40, 10 mg/mL) and eugenol (0-100 mM). The final content of ethanol was 5-7% v/v. The reaction was initiated by the addition of coniferyl alcohol (5 mM), and then incubated for 4 hours at 30° C. and 120 rpm (rotary shaker). To improve the oxygenation, the vials were placed horizontally.

Where [4] appears, read: cascade with EUGO, pH 8.0 and pH 9.0.

B1: CO-03: alkene cleavage oxygenase from Sphingomonadales bacterium, SEQ ID NO: 30 (protein, listed as Sphingomonadales bacterium)
chain: MSLFNRNHPVFSGGNAPVRIETDAICLETDGALPDELKGSYFRLTADPQFPPRLRPVLVEADGHVGAFHFRDNGQVDYVGKWVRTERFLRERAARRALFGTYRNRFTDEESVLDSDRTTANTAFMFHHHKFFALKEDGLPYQLDPETLDTIGRYDFGGTVSAKSLSAHPKVDSRTGELITHSGQAKGEGTPDIAYYVFDKNGTKTVERWFEAPYSSIVHDIAITQDWVVLPIMPAVVEEERLRAGGATYWWKPELGNHIAVFRRDGTGDVRWFRTKATYAFHVVNSYQDGDRLIIDVMDAEEFPMWWPRPEQVAALRSGEIKRDKFVAQLTRWTIDLAGDSDDIERELLHPWEAEMPRIDDRFAGQPYRYAVYGVDDPSFPLAHGLAELGVNHNSVGWWDHQTRTLTSWYTGPNSSVGEPVFTPRSPDAPEGDGFILAVVQRLAEQRSELVVIDTRDVAAGPIASVHAPHRLKNAIHNLWIDQEQLNEGGEKA
B1: in data set [1] (freeze-dried cell free extract incl. buffer salts, vanillin from coniferyl alcohol), the “Specific Activity (mU/mg of FD-CFE)” value is given as 7-10 mU/mg. The “Screening of putative COs: formation of 3a upon 2a cleavage (hit or inactive)” value in data set [1] was “positive hits”. In data set [2] (pH 8.0), the “Reaction composition after 24 hours 1a (%)” value is given as at most 1%, the “Reaction composition after 24 hours 2a (%)” value turned out to be 14%, the “Reaction composition after 24 hours 3a (%)” value is given as 78% and the “Reaction composition after 24 hours 5a (%)” value amounted to 8%. In data set [2] (pH 8.0), the “Product distribution after 24 hours 2a (%)” value is 19.6%, the “Product distribution after 24 hours 3a (%)” value stood at 72.0%, the “Product distribution after 24 hours 5a (%)” value was 8.4% and the “Conversion of 1a to 3a (%)” value was determined as 70 ± 3%. In addition, in data set [2] (pH 8.0), the “Reaction composition at 24 hours (%) 1a” value is 1≤ %, the “Reaction composition at 24 hours (%) 2a” value is 14 ± 3%, the “Reaction composition at 24 hours (%) 3a” value is recorded as 80 ± 2% and the “Reaction composition at 24 hours (%) 5a” value is on record as 9 ± 1%. In addition, in data set [2] (pH 9.0), the “Reaction composition after 24 hours 1a (%)” value is recorded as at most 1%, the “Reaction composition after 24 hours 2a (%)” value is listed as 8%, the “Reaction composition after 24 hours 3a (%)” value amounted to 81% and the “Reaction composition after 24 hours 5a (%)” value came to 11%. In addition, in data set [2] (pH 9.0), the “Product distribution after 24 hours 2a (%)” value is listed as 11.9%, the “Product distribution after 24 hours 3a (%)” value came to 74.9%, the “Product distribution after 24 hours 5a (%)” value turned out to be 13.2% and the “Conversion of 1a to 3a (%)” value was 70 ± 3%. Also, in data set [2] (pH 9.0), the “Reaction composition at 24 hours (%) 1a” value is on record as 1≤ %, the “Reaction composition at 24 hours (%) 2a” value is given as 7 ± 2%, the “Reaction composition at 24 hours (%) 3a” value was determined as 83 ± 3% and the “Reaction composition at 24 hours (%) 5a” value amounted to 10 ± 1%. Also, in data set [2] (setting [4]), the “amount of 3a in reaction mixture” value was 78-81%; the “remaining 2 and its oxidation product 5a in the reaction mixture” value is on record as about 20%. Also, the “overall conversion of 1a to vanillin 3a in the 2-step cascade” value in data set [2] (with EUGO, 5 mM substrate concentration) was 70±3% and 70%. Further, the cleaving activity retained in data set [3] (50 mM 1a, increased biocatalyst amount and modified reaction buffer) came to 49%. For the same molecule, the Residual activity in data set [3] (at 50 mM 1a) is reported as at most 10%.

B2: CO-07: alkene cleavage oxygenase, Thermopolyspora flexuosa, SEQ ID NO: 40 (protein, listed as Thermopolyspora flexuosa)
chain: MVWFPPPKDPFDAPMRVEADIRGVQVTQGEVPEHLDGTYYRCVSDRQWPSYVENDLELFNSDGMIISFRFHKGRVDFKSRYVRTPRFVAEEKAGRALFGAYRNPFDDDPSVAGISRGLANTNVFFHGGKLYASKEDSPPILIDPDTLETIGEYDFEGALTSRTATAHPKFDPVTGEMVFFGYEAKGPGTPDIAYYEADPSGRIIHEAWLEAPYTSMVHDWAVTQNFVIFPIIPLRSDIEWIKKGQSYFQWDPYEDVYLGVMPRKGTAKDLRWYRGSNRFASHIMGAYDDGRYVYIDTPVGQTNYFPWFPDITGAPYDPERSKGYLSRWTIDTQGESDGFTETRLSDLPGEFPRMDDRQETLPYHWGIMLLTDVPGRNAPGGGFRWLMGIDLKTGRKQIYYPGDHCTLGEAIFVPAAPDAPPGVGYVLTVVARRKEMRSDLVLLDAQRLDGEPVCTLSLPMRIRMGVHGNWVSAAELAGRTD
In the case of B2, the “Screening of putative COs: formation of 3a upon 2a cleavage (hit or inactive)” value in data set [1] was “positive hits”. Moreover, in data set [2] (pH 8.0), the “Reaction composition after 24 hours 1a (%)” value is given as 51%, the “Reaction composition after 24 hours 2a (%)” value turned out to be 61%, the “Reaction composition after 24 hours 3a (%)” value is reported as 21% and the “Reaction composition after 24 hours 5a (%)” value amounted to 18%. In data set [2] (pH 9.0), the “Reaction composition after 24 hours 1a (%)” value is recorded as 51%, the “Reaction composition after 24 hours 2a (%)” value amounted to 50%, the “Reaction composition after 24 hours 3a (%)” value came to 27% and the “Reaction composition after 24 hours 5a (%)” value amounted to 23%.
